Experimental data from US20260167737A1 (BIGHAT BIOSCIENCES, published 2026).
Numbering of substitutions follows the chain as printed. Values belong to the molecule of their own block, whether it stands above or below them.

Columns and labels:
CDH17 [1] = target: T1, CDH17 (UniProt Q12864 23-787, limits assumed)
T1 construct: also called cadherin 17
T1 sequence (looked up): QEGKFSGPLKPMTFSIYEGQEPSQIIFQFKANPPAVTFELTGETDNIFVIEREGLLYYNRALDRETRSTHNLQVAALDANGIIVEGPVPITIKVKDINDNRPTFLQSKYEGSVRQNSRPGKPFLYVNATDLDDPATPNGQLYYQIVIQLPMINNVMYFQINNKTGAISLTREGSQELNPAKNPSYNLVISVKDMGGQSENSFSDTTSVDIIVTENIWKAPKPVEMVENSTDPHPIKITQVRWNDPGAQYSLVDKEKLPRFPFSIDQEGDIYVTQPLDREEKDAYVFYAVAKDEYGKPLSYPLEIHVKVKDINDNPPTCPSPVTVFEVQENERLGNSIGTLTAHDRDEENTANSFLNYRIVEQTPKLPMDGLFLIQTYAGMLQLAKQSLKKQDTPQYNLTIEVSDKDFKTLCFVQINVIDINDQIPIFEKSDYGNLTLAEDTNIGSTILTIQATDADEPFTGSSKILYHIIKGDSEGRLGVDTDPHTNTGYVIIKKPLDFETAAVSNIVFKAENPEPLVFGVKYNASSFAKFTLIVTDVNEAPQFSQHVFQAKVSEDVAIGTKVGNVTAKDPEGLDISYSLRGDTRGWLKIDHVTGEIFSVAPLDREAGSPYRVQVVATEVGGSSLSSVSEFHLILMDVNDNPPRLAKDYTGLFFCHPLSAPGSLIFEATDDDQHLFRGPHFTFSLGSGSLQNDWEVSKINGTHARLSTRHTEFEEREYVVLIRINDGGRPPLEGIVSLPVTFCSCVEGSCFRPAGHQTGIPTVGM

CDH17 on SNU16 cells = CDH17 on SNU16 cells (UniProt Q12864)
CDH17 [2] = target: T1, CDH17; test: method not stated; KD at pH 7.4

Molecule: isotype vedotin (Fc fusion)
- cytotoxicity IC50 of the negative control (no asterisk: isotype control vedotin ADC), AsPC1 (PDAC) cells (CDH17 [1]): > 100 nM
- cytotoxicity IC50 of the negative control (no asterisk: isotype control vedotin ADC), CAPAN2 (PDAC) cells (ABC <LLOD) (CDH17 [1]): > 100 nM
- cytotoxicity IC50 of the negative control (no asterisk: isotype control vedotin ADC), LoVo (CRC) cells (ABC <LLOD) (CDH17 [1]): > 100 nM
- cytotoxicity IC50 of the negative control (no asterisk: isotype control vedotin ADC), NCI-H508 (CRC) cells (CDH17 [1]): 0.301 nM
- cytotoxicity IC50 of the negative control (no asterisk: isotype control vedotin ADC), SW403 (CRC) cells (CDH17 [1]): > 100 nM
- cytotoxicity IC50 of the negative control (no asterisk: isotype control vedotin ADC), SW837 (CRC) cells (ABC <LLOD) (CDH17 [1]): > 100 nM
- cytotoxicity IC50 of the negative control (no asterisk: isotype control vedotin ADC), SNU16 (gastric) cells (CDH17 on SNU16 cells): > 100 nM

- Kd (CDH17 [2]): 27.2 nM
B1: CDH17_vhh_0001 (VHH)
VHH: QVQLQESGGGLVQPGGSTRLSCVSSRTFSYYDMGWFRQAPGKEREFVALLSWNGENAEYSDSVMGRFTVSRGNTQNSVNLQMNNLKPEDTGIYYCAVTHGGARSVRSWGQGTQVTVSS
notes: also called parental VHH-0001

- Kd (CDH17 [2]): 3.94 nM
B2: CDH17_vhh_0263 (VHH)
VHH: B1 VHH with N53R, E55N, N56Y, T68V, H99Y

- Kd (CDH17 [2]): 3.3 nM
B3: CDH17_vhh_0652 (VHH)
VHH: B1 VHH with A39Y, N53R, E55N, N56Y, T68V, H99Y, S107L

- Kd (CDH17 [2]): 2.63 nM
B4: CDH17_vhh_0646 (VHH)
VHH: B1 VHH with N53R, E55N, S60R, H99Y, S107L

- Kd (CDH17 [2]): 4.36 nM
B5: CDH17_vhh_0676 (VHH)
VHH: B1 VHH with N53R, E55N, S62D, H99Y, G101T

- Kd (CDH17 [2]): 2.01 nM
B6: CDH17_vhh_0949 (VHH)
VHH: B1 VHH with N53R, E55N, S62D, H99Y, G101K, S107L

- Kd (CDH17 [2]): 3.12 nM
B7: CDH17_vhh_0653 (VHH)
VHH: B1 VHH with N53R, E55I, S62T, T68V, H99Y, G101V

- Kd (CDH17 [2]): 4.75 nM
B8: CDH17_vhh_0259 (VHH)
VHH: B1 VHH with A39Y, N53R, E55N, H99Y

- Kd (CDH17 [2]): 5.43 nM
B9: CDH17_vhh_0688 (VHH)
VHH: B1 VHH with N53R, E55N, S62D, H99Y, G101N

- Kd (CDH17 [2]): 3.79 nM
B10: CDH17_vhh_0674 (VHH)
VHH: B1 VHH with N53R, E55N, S62T, H99Y, S107K

- Kd (CDH17 [2]): 2.04 nM
B11: CDH17_vhh_0946 (VHH)
VHH: B1 VHH with N53R, E55N, S62F, H99Y, G101V, S107L

- Kd (CDH17 [2]): 3.89 nM
B12: CDH17_vhh_0675 (VHH)
VHH: B1 VHH with N53R, E55N, S62T, H99Y, S107A

- Kd (CDH17 [2]): 2.93 nM
B13: CDH17_vhh_0622 (VHH)
VHH: B1 VHH with R26I, N53R, H99Y

- Kd (CDH17 [2]): 5.47 nM
B14: CDH17_vhh_0395 (VHH)
VHH: B1 VHH with N53R, E55N, D61E, H99Y

- Kd (CDH17 [2]): 5.14 nM
B15: CDH17_vhh_0262 (VHH)
VHH: B1 VHH with N53R, E55N, S62T, H99Y

- Kd (CDH17 [2]): 4.85 nM
B16: CDH17_vhh_0372 (VHH)
VHH: B1 VHH with S51D, N53R, E55N, H99Y

- Kd (CDH17 [2]): 2.15 nM
B17: CDH17_vhh_0945 (VHH)
VHH: B1 VHH with N53R, E55N, M64H, H99Y, G101V, S107L

- Kd (CDH17 [2]): 3.32 nM
B18: CDH17_vhh_0644 (VHH)
VHH: B1 VHH with N53R, E55N, S60R, T68V, H99Y, G101V

- Kd (CDH17 [2]): 2.45 nM
B19: CDH17_vhh_0650 (VHH)
VHH: B1 VHH with N53R, E55N, S60R, H99Y, R103K, S107L

- Kd (CDH17 [2]): 4.94 nM
B20: CDH17_vhh_0173 (VHH)
VHH: B1 VHH with N53R, E55N, S60R, H99Y

- Kd (CDH17 [2]): 3.76 nM
B21: CDH17_vhh_0672 (VHH)
VHH: B1 VHH with N53R, E55N, M64H, H99Y, S107L

- Kd (CDH17 [2]): 4.85 nM
B22: CDH17_vhh_0613 (VHH)
VHH: B1 VHH with N53R, H99Y

- Kd (CDH17 [2]): 4.9 nM
B23: CDH17_vhh_0632 (VHH)
VHH: B1 VHH with N53R, N56R, H99Y

- Kd (CDH17 [2]): 1.81 nM
B24: CDH17_vhh_0951 (VHH)
VHH: B1 VHH with N53R, E55N, S62D, H99Y, G101T, S107L

- Kd (CDH17 [2]): 3.94 nM
B25: CDH17_vhh_0948 (VHH)
VHH: B1 VHH with N53R, E55N, S62D, M64H, H99Y, S107L

- Kd (CDH17 [2]): 7.59 nM
B26: CDH17_vhh_0156 (BHB156) (VHH)
VHH: B1 VHH with N53R, E55N, H99Y

- Kd (CDH17 [2]): 4.96 nM
B27: CDH17_vhh_0629 (VHH)
VHH: B1 VHH with S51D, N53R, H99Y

- Kd (CDH17 [2]): 3.71 nM
B28: CDH17_vhh_0651 (VHH)
VHH: B1 VHH with A39Y, N53R, E55N, T68V, H99L, G101V

- Kd (CDH17 [2]): 5.08 nM
B29: CDH17_vhh_0267 (VHH)
VHH: B1 VHH with Q38Y, N53R, E55N, S60A, H99Y

- Kd (CDH17 [2]): 2.82 nM
B30: CDH17_vhh_0271 (VHH)
VHH: B1 VHH with N53R, E55N, T68V, H99Y, G101V

- Kd (CDH17 [2]): 4.35 nM
B31: CDH17_vhh_0274 (VHH)
VHH: B1 VHH with N53R, E55N, T68V, H99Y, R103K

- Kd (CDH17 [2]): 2.65 nM
B32: CDH17_vhh_0677 (VHH)
VHH: B1 VHH with N53R, E55N, S62D, H99Y, G101K

- Kd (CDH17 [2]): 2.18 nM
B33: CDH17_vhh_0648 (VHH)
VHH: B1 VHH with N53R, E55N, T68V, H99Y, G101V, R103K

- Kd (CDH17 [2]): 3.21 nM
B34: CDH17_vhh_0591 (VHH)
VHH: B1 VHH with N53R, E55N, H99Y, S107L

- Kd (CDH17 [2]): 5.01 nM
B35: CDH17_vhh_0587 (VHH)
VHH: B1 VHH with N53R, E55I, H99Y

- Kd (CDH17 [2]): 4.53 nM
B36: CDH17_vhh_0670 (VHH)
VHH: B1 VHH with S51D, N53R, E55N, N56Y, H99Y

- Kd (CDH17 [2]): 2.61 nM
B37: CDH17_vhh_0952 (VHH)
VHH: B1 VHH with N53R, E55N, S62D, H99Y, G101N, S107L

- Kd (CDH17 [2]): 5.17 nM
B38: CDH17_vhh_0645 (VHH)
VHH: B1 VHH with A39Y, N53R, E55N, N56Y, T68V, H99Y

- Kd (CDH17 [2]): 4.83 nM
B39: CDH17_vhh_0689 (VHH)
VHH: B1 VHH with N53R, E55N, S62F, H99Y, S107L

- Kd (CDH17 [2]): 3.81 nM
B40: CDH17_vhh_0950 (VHH)
VHH: B1 VHH with N53R, E55N, A57S, M64H, H99Y, S107L
